Assay results from article PMC9837990.

Molecular target: CH31 IgG monoclonal antibody
Experiment: SPR

| t1/2 | Kd | koff | Substance |
| --- | --- | --- | --- |
| 44.4 min |  |  | GT8 tetramer (biotinylated eOD-GT8 on streptavidin) (from UniProt P22629 25-183) (complex) |
|  | 5200 nM | > 0.01 s⁻¹ | eOD-GT6-Avi-3C-His (designed binder) |
| 4.9 min |  |  | GT6 tetramer (biotinylated eOD-GT6 on streptavidin) (from UniProt P22629 25-183) (complex) |
|  | 308 nM | > 0.01 s⁻¹ | eOD-GT8_AviHis (designed binder) |
